± gives the uncertainty stated by the source.
B1: Protein C-ets-1, residues 55 to 135; numbered along this chain, P14921 (parent)
chain: GFTKEQQRLGIPKDPRQWTETHVRDWVMWAVNEFSLKGVDFQKFCMNGAALCALGKDCFLELAPDFVGDILWEHLEILQKE

Variants of: B1
Experiment: abundance fitness (aPCA) (normalised: wild type 0, dead -1); higher = more abundant; growth selection in yeast, the domain comes from the species named
Settings: Homo sapiens

In order of falling abundance fitness:
1. GFTKEQQRLGIPKDPRQWTETHVRDWVMWAVNEFSLKGVDFQKFCMNGAALCALGKDCFLELAPDFVGDILWEHLEHLQKE [I77H]  0.076 ± 0.1
2. GFTKEQIRLGIPKDPRQWTETHVRDWVMWAVNEFSLKGVDFQKFCMNGAALCALGKDCFLELAPDFVGDILWEHLEILQKE [Q7I]  0.062 ± 0.086
3. GFTKEQQRLGIPKDPRQWTETHVRDWVMWAVNEFSLKGVDFQKFCMNGAMLCALGKDCFLELAPDFVGDILWEHLEILQKE [A50M]  -0.007 ± 0.067
4. GFTKEQQRLGIPKDPRQWTEGHVRDWVMWAVNEFSLKGVDFQKFCMNGAALCALGKDCFLELAPDFVGDILWEHLEILQKE [T21G]  -0.008 ± 0.029
5. GFFKEQQRLGIPKDPRQWTETHVRDWVMWAVNEFSLKGVDFQKFCMNGAALCALGKDCFLELAPDFVGDILWEHLEILQKE [T3F]  -0.029 ± 0.084
6. GFTKEQQRLGIPKDPRQWTETHVRDWVMWAVNEFSLKGVDCQKFCMNGAALCALGKDCFLELAPDFVGDILWEHLEILQKE [F41C]  -0.034 ± 0.044
7. GFTKEQQRLGIPKDPRQWTETHVRDWVMWAVNRFSLKGVDFQKFCMNGAALCALGKDCFLELAPDFVGDILWEHLEILQKE [E33R]  -0.042 ± 0.033
8. GFTKEQQRLGIPKDPRQWTETHVRDWVMWAVNEFSLKGVDFTKFCMNGAALCALGKDCFLELAPDFVGDILWEHLEILQKE [Q42T]  -0.052 ± 0.061
9. GFTKEQQRLGIPKDPRQWTETHVRDWVMWAVNEFSLKGVDFQKFCMNGAALCALGKDCFLELAPDFVGMILWEHLEILQKE [D69M]  -0.055 ± 0.065
10. GFTKEQQRLGIPKDPRQWTETHVRDWVMWAMNEFSLKGVDFQKFCMNGAALCALGKDCFLELAPDFVGDILWEHLEILQKE [V31M]  -0.069 ± 0.04
11. GFTKEQQRLGIPKDPRQWTETHVRDWVMWAVNEFSLKGVDFQKFCMNGAALCALGKDCFLELAPDFVGDILWEHLRILQKE [E76R]  -0.072 ± 0.035
12. GFTKEQQRLGIPKDPRQWTETHVRDWVMWAVNEFSLKGVDFQKFCMNGACLCALGKDCFLELAPDFVGDILWEHLEILQKE [A50C]  -0.116 ± 0.073
13. GFTKEQQRLGIPKDPRQWTETHVRDWVMWAVNEFSLKGVDFQKFCMNGAALCALGKDCFLELAPDFVGCILWEHLEILQKE [D69C]  -0.167 ± 0.063
14. GFTKEQQRLGIPKDPRQWTETHVRDWVMWAVNEFSLKGVDFQKFCMNGAALCALGKDCFLELAPDFVGDILWELLEILQKE [H74L]  -0.198 ± 0.039
15. GFTKEQQRLGTPKDPRQWTETHVRDWVMWAVNEFSLKGVDFQKFCMNGAALCALGKDCFLELAPDFVGDILWEHLEILQKE [I11T]  -0.205 ± 0.051
16. GFTKEQQRLGIPKDPRQWTETHVRDWVMWAVNEFSLKGVDFQKFCMNGAALCALGKDCFLELAPDFNGDILWEHLEILQKE [V67N]  -0.242 ± 0.11
17. GGTKEQQRLGIPKDPRQWTETHVRDWVMWAVNEFSLKGVDFQKFCMNGAALCALGKDCFLELAPDFVGDILWEHLEILQKE [F2G]  -0.272 ± 0.04
18. GFTKEQQRLGIPKDPRQWTETHVRDWVMWARNEFSLKGVDFQKFCMNGAALCALGKDCFLELAPDFVGDILWEHLEILQKE [V31R]  -0.274 ± 0.027
19. GFTKEQQRLGIPKDPRQWTETHVRDWVMWAVNEFSLKGVDFQTFCMNGAALCALGKDCFLELAPDFVGDILWEHLEILQKE [K43T]  -0.302 ± 0.048
20. GFTKEQQRLGIPKDPRQWTETHVRDWVMWAVNEFSCKGVDFQKFCMNGAALCALGKDCFLELAPDFVGDILWEHLEILQKE [L36C]  -0.332 ± 0.063
21. GFTKEQQRLGIPKDPRQWTETHVRDWVMWAGNEFSLKGVDFQKFCMNGAALCALGKDCFLELAPDFVGDILWEHLEILQKE [V31G]  -0.427 ± 0.03
22. GFTKEQQRLGIPKDPRQWTETHVRDWVMWAVNEFSLKGVDFQKFCMNGAALCALGKDCFLELAPDFVGDILWEHLEIEQKE [L78E]  -0.5 ± 0.066
23. GFTKEQQRLGIPKDPRQWTETHVRDWVMWAVNLFSLKGVDFQKFCMNGAALCALGKDCFLELAPDFVGDILWEHLEILQKE [E33L]  -0.503 ± 0.038
24. GFTKEQQRLGIFKDPRQWTETHVRDWVMWAVNEFSLKGVDFQKFCMNGAALCALGKDCFLELAPDFVGDILWEHLEILQKE [P12F]  -0.606 ± 0.095
25. GFTKEQQRLGIPKTPRQWTETHVRDWVMWAVNEFSLKGVDFQKFCMNGAALCALGKDCFLELAPDFVGDILWEHLEILQKE [D14T]  -0.62 ± 0.05
26. GFTKEQQRLGIPKDPRQWTETHVRDWVMWAVNEFSLKGVDFQKFCMNGAALCALGWDCFLELAPDFVGDILWEHLEILQKE [K56W]  -0.729 ± 0.084
27. GFTKEQQRLGIPKDPRQWTETHVRDWVMWAVNEFSLKGVDFQKSCMNGAALCALGKDCFLELAPDFVGDILWEHLEILQKE [F44S]  -0.76 ± 0.067
28. GFTKEQQRLGIPKPPRQWTETHVRDWVMWAVNEFSLKGVDFQKFCMNGAALCALGKDCFLELAPDFVGDILWEHLEILQKE [D14P]  -0.813 ± 0.068
29. GFTKEQQRLGIPKDPRQWTETHVRDEVMWAVNEFSLKGVDFQKFCMNGAALCALGKDCFLELAPDFVGDILWEHLEILQKE [W26E]  -0.84 ± 0.057
30. GFTKEQQRLGIPKDPRQWTETPVRDWVMWAVNEFSLKGVDFQKFCMNGAALCALGKDCFLELAPDFVGDILWEHLEILQKE [H22P]  -0.85 ± 0.11
31. GFTKEQQRLGIPKDPRQWTETHVRDWVMWAVNEFSLKGVDFQKFCMNGAALCALGKDCFLELAPDFVGDILWEHREILQKE [L75R]  -0.863 ± 0.058
32. GFTKEQQRLGIPKDPRQQTETHVRDWVMWAVNEFSLKGVDFQKFCMNGAALCALGKDCFLELAPDFVGDILWEHLEILQKE [W18Q]  -0.899 ± 0.23
33. GFTKEQQRLGIPKDPRQWTETHVRDRVMWAVNEFSLKGVDFQKFCMNGAALCALGKDCFLELAPDFVGDILWEHLEILQKE [W26R]  -0.934 ± 0.04
34. GFTKEQQRLGIPKDPRQWTETHVRDWVMWAVNEFSLKGVDFQKFCMNGAALCPLGKDCFLELAPDFVGDILWEHLEILQKE [A53P]  -0.943 ± 0.082

Reference: the Human Domainome abundance scans (Beltran et al. 2025)
